{"source": "patent US20060263381A1", "binders": {"B1": {"name": "p262 (…) (peptide)", "peptide": "YEFLWGPRA"}}, "target": "HLA-A*0201 molecule (human)", "assay": "T2 cells loaded with 100 µM peptide, Brefeldin A, flow cytometry with BB7.2 at 0-8 h", "conditions": "remark: other sources report otherwise", "data": [{"binder": "B1", "values": [{"measurement": "DC50 (time for loss of 50% of the complexes)", "value": "< 2", "unit": "h"}]}]}
